# Experimental data as given in the supplement of paper PMC7125110.
# ± gives the standard error. Fewer inactive variants are shown than the library holds.
# B1: glmS ribozyme (parent)
# chain: AUAAAAGCGCCAGAACUACAGAAAUGUAGUUGACGAGGAGGAGGUUUAUCGAAUUUUCGGCGGAUGCCUCCAAA
# How the values were obtained:
# Details in all cases: with glucosamine-6-phosphate
# glucosamine-6-phosphate [1] = variants of: B1; assay: self-cleavage kobs at 640 uM GlcN6P; higher = faster cleavage; RNA array
# Summary of the method: (§1)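 Glucosamine-6-phosphate, from 40 μM to 10 mM in HEPES/KCl/Mg(OAc)2 buffer, was flowed over sequenced MiSeq chips carrying barcoded ribozyme variants transcribed in situ by E. coli RNA polymerase. A hybridised Cy3 probe tracked the variants at 37 °C as tiles were imaged over ~14 h. kobs, kcat and KM were obtained by fitting normalised per-tile medians to exponential decays and then applying weighted Michaelis–Menten fits across concentrations.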
# glucosamine-6-phosphate [2] = variants of: B1; assay: self-cleavage kobs at 2500 uM GlcN6P; higher = faster cleavage; RNA array
# Summary of the method: as §1
# glucosamine-6-phosphate [3] = variants of: B1; assay: self-cleavage kobs at 10000 uM GlcN6P; higher = faster cleavage; RNA array
# Summary of the method: as §1
Variant,self-cleavage kobs at 640 uM GlcN6P (glucosamine-6-phosphate [1]) [s⁻¹],self-cleavage kobs at 2500 uM GlcN6P (glucosamine-6-phosphate [2]) [s⁻¹],self-cleavage kobs at 10000 uM GlcN6P (glucosamine-6-phosphate [3]) [s⁻¹]
AUAAAAGCGCCAGAACUACAGAAAUGUAGUUGACGAGGAUGAGUUUUAUCGAAUUUUCGGCGGAUGCUUCCAAA [G40U G44U C68U],< 1e-05,–,–
AUAAAAGCGCCAGAACUACAGAAAUGUAGUUUACGAGGAGGAGGUUUAUCGAAUUUUCAGCGGUUGUCUCCAAA [G32U G59A A64U C67U],< 1e-05,< 1e-05,–
AUAAAAGCGACAGAACUACAGAAAUGUAGUUGGCGAGGAGGAGGCUUAUCGAAUUUUCGGCGGAUACCUUCAAA [C10A A33G U45C G66A C70U],< 1e-05,< 1e-05,–
AUAAAAGCGCCAGAACUACAGAAAUGUAGUUGACGAGGAGGAGAUCUACCGAAGUUUCGGCGGAUGGCUCCAAA [G44A U46C U49C U54G C67G],< 1e-05,< 1e-05,–
AUAAAUGCGCCAGAACUACAGAAAUGUAGUUGACGAGGCGGAGGUUUAUCGAAUUUUCGACGGAUGCCUCCAAA [A6U A39C G60A],< 1e-05,–,–
AUAAAAGCGGCUGAACUACAGAAAUGUAGUUGACGAGGAGGAGGUUUAUCGAAUUGUCGGCGGAUGCCUCUAAA [C10G A12U U56G C71U],< 1e-05,–,–
AUAAAAGCGCCAGAACUACAGAAAUGUAGUUGACGAGGAGGAGGUUUAUCGCAUUCUCGGCGGAUGUCUCCAAA [A52C U56C C67U],< 1e-05,–,–
AUAAAAGCGCCAUAACUACAGAAAUGUAGAUGACGAGGAGGAGGUUUAUCGAGUUUUCGGCGGAUGCCUCCAAA [G13U U30A A53G],5.33e-05 ± 1.9e-05,–,4.23e-05 ± 1.5e-05
AUAAAAGCGCCAGAACUACAGAAAUGUAGUUGACGAGGAGGAGGUUUAUCGAAUUUUCAUCGGAUGUCUCCAAA [G59A G60U C67U],< 1e-05,–,–
AUAAAUGCGCCAGAACUACAGAAAUGUAGUUGACGAGGAGGAGGAUUAUGGAAUUUUCGGCGGAGGCCGCCAAA [A6U U45A C50G U65G U69G],< 1e-05,–,–
AUAAAAGCGCCUGAACUACAGAAAUGUAGUUGACGAGGAGGAGGUUUAUCGAAUUUUCGGCGGAUGGCUUCAAA [A12U C67G C70U],0.000172 ± 3.8e-05,0.000623 ± 0.00017,–
AUAAAAGUGCCAGCCCUACAGAAAUGUAGUUGACGAGGAGGAGGUUUAUCGAAUUUUCGGCGGAUGCCUCCAAA [C8U A14C A15C],< 1e-05,–,–
AUAAAAUAGCCAAAACUACAGAAAUGUAGUUGACGAGGAGGAGGUUUAUCGAAUUUUCGGCGGAUGCCUCCAAA [G7U C8A G13A],< 1e-05,–,–
AUAAAAGCACCAGAACUACAGAAAUGUAAUUGACGAGGAGGAGGUUUAUCGAAUUUUCGGCGUAUGCCUCCAAA [G9A G29A G63U],< 1e-05,< 1e-05,–
AUAAAAGCGCCAGAACUACAGAAAUGUAGUUUGCGAGGAGGAGGUUUAUCGAAUUUUCGGCGGAUGCCUCCAAA [G32U A33G],< 1e-05,–,–
AUAAAAGCCCCAGAACUACAGAAAUGUAGUUGACGAGGAGGAUGUUUAUCGAAUGUUCGGCGGGUGCCUCCAAA [G9C G43U U55G A64G],< 1e-05,< 1e-05,–
AUAAAAGCGCCAGAACUACAGAAAUGUAGAUGACGAGGAGGAGGUUUAUCGAAUUUUCGGCGGAUGCCUGUAAA [U30A C70G C71U],5.91e-05 ± 2.5e-05,8.51e-05 ± 2.9e-05,–
AUAAAAGCGACAGAACUACAGAAAUGUAGUAGACGAGGAGGAGGUUUAUCGAAUUCUCGGCGGAUGCCUCCAAA [C10A U31A U56C],< 1e-05,< 1e-05,< 1e-05
AUAAAAGGGCCAGAACUACAGAAAUGUAGUGGACGAGGAGGAGGUUUAUGGAAUUUUCGGCGGAUGCCUCCAAA [C8G U31G C50G],7.77e-05 ± 3.6e-05,–,–
AUAAACGCGCCAGAACUACAGAAAUGUAGUUGACGAGGAGGAGGUUCAUCGAAGUUUCGGCGGAUGCCUCCAAA [A6C U47C U54G],< 1e-05,–,–
AUAAAAGCGCCAGCACUACAGAAAUGUAGUUGACGAGGAGGGAGUUUAUCGAAUUUUCGGCGGAUGCCCUCAAA [A14C A42G G43A U69C C70U],< 1e-05,–,–
AUAAAAGCGCCAGAACUACAGAAAUGUAAUUGUCGAGGAGGAGUUUUAUCGAAUUUUCGGCGGAUGCCUCCAAA [G29A A33U G44U],< 1e-05,–,–
AUAAAAGCUCCAGAACUACAGAAAUGUAGUUGACGAGGAGGAGCUUUAUCGAAUUUUAGGCGGAUGCCUCCAAA [G9U G44C C58A],< 1e-05,–,–

Variant,self-cleavage kobs at 640 uM GlcN6P (glucosamine-6-phosphate [1]) [s⁻¹],self-cleavage kobs at 2500 uM GlcN6P (glucosamine-6-phosphate [2]) [s⁻¹],self-cleavage kobs at 10000 uM GlcN6P (glucosamine-6-phosphate [3]) [s⁻¹]
AUAAAAGCGCCAGAACUACAGAAAUGUAGUUGACGAGGGGGAGGUUUAUCGAAUUUUCGGCGGCUGCCGCUAAA [A39G A64C U69G C71U],< 1e-05,< 1e-05,–
AUAAAAGCGCCAGAACUACAGAAAUGUAGUUGACGAGGAGGAGGUUUAUCGAAUUUUCGGGGGAUGCCUGGAAA [C61G C70G C71G],0.000223 ± 8.8e-05,8.65e-05 ± 2.4e-05,–
AUAAAAGCGCCAGAGCUACAGAAAUGUAGUUGACGAGGAUGAGGUUUAUGGAAUUUUCGCCGGAUGCCUCCAAA [A15G G40U C50G G60C],< 1e-05,–,–
AUAAAAGCGCCAGAACUACAGAAAUGUAGUUGACGAGGAGGAAGAUUAUCGAUUUUUCGGCCGUUGCCUCCAAA [G43A U45A A53U G62C A64U],< 1e-05,< 1e-05,–
AUAAAAGCGCCAGAACUACAGAAAUGUAGUUGUCGAGGAGGAGGUUUAUCGAAUUUAUGGCGGAUGCCUAGAAA [A33U U57A C58U C70A C71G],9.76e-05 ± 2.5e-05,–,–
AUAAAACCGACAAAACUACAGAAAUGUAGUUGACGAAGAGGAGGAUUAUCGAAUUUUCGGCGGAUGCCUCCAAA [G7C C10A G13A G37A U45A],< 1e-05,< 1e-05,–
AUAAAAGCCCCAGAACUACAGAAAUGUAGUUGACGAGGAGUAGCUUUAUCGAAUUUUCGGCGGAUGCCUCCAAA [G9C G41U G44C],< 1e-05,–,–
AUAAAAGGGUCAGAACUACAGAAAUGUAGUUGACGAGGAGGAGGUUUUUCGAAUUUUCGGCGGAUGCCUCCAAA [C8G C10U A48U],< 1e-05,< 1e-05,–
AUAAAAGCGCCAGGACUACAGAAAUGUAGUUGACGAGCAGGAGAUUUAUCGAAUUUUCGGCGGAUGCCUCCAAA [A14G G38C G44A],< 1e-05,< 1e-05,< 1e-05
AUAAAACCGCCAGAACUACAGAAAUGUAGUUGACGUGGAGGAGGUUUAUCGAAUUUUCGGCGGAUGGCUCCAAA [G7C A36U C67G],< 1e-05,< 1e-05,< 1e-05
AUAAAAGCUCCAGCACUACAGAAAUGUAGUUGACGAGGAGGAGGUUUAUCGAUUUUUCGGCAGAUGGCUCCAAA [G9U A14C A53U G62A C67G],< 1e-05,< 1e-05,–
AUAAAAGCGCCAGAACUACAGAAAUGUAGUUGCCGAGGAGGAGGUUUCUCGAAUUUUCGGCGGAUGCCUCCAAA [A33C A48C],< 1e-05,< 1e-05,–
AUAAAAGCGCCAGAACUACAGAAAUGUAGUUGACGAGGAGGAGGUUUAUCGCUUAUUCGGCGGAAGCCUCCAAA [A52C A53U U55A U65A],< 1e-05,< 1e-05,–
AUAAAAGCGCCUGAACUACAGAAAUGUAGAUGACGAGUAGGAGGUUUAUCGAAUUUUCGGCGGAUGCCUCCAAA [A12U U30A G38U],< 1e-05,–,–
AUAAAAGCGCCAGAACUACAGAAAUGUAGUUGACGAGGAGGAGGUUUAUGGACAUUUCGGCGGAUGCCACCAAA [C50G A53C U54A U69A],0.000691 ± 0.00026,0.000283 ± 0.00011,–
AUAAAAGUGCCAGAACUACAGAAAUGUAGUUGACGAGGAGGAGGUGUAUCGAAUUUUCGGAGGAUGCUUCCAAA [C8U U46G C61A C68U],< 1e-05,–,–
AUAAAAGCGCCAGGACUACAGAAAUGUAGUUGACGCGGACGAGGUUUAUCCAAUUUUCGGCGGAUGCCUCCAAA [A14G A36C G40C G51C],< 1e-05,–,–
AUAAAAGCGCCAGAACUACAGAAAUGUAGUUGACGAGGAGGAGGUUUAUCGAAUAUUCGGCGGAUGAUUCCAAA [U55A C67A C68U],8.42e-05 ± 2.6e-05,0.000218 ± 4e-05,0.000108 ± 2.8e-05
AUAAAAGCGCGAGAACUACAGAAAUGUAGUUGAGGAGGAGGAGGUUUAUCGAAUUUUCAGCGGAUGCCUCCAAA [C11G C34G G59A],< 1e-05,< 1e-05,–
AUAAACGCGCCAGAACUACAGAAAUGUAGAUGACGAGGAGGAGGUUUAUCGAAUUUUCGGCGGAUGGCUCCAAA [A6C U30A C67G],< 1e-05,–,–
AUAAAAGCGCCGGAACUACAGAAAUGUAGUUGACGAAGAGGAGGUUUGUCGAAUUUUCGGCGCAUGCCUCCAAA [A12G G37A A48G G63C],< 1e-05,–,–
AUAAAAGCGCCAGAAAUACAGAAAUGUAGUUGACGAGGAGGAGGUUUAUCGAAUUGUCGGCGGAGGCCUCCAAA [C16A U56G U65G],5.32e-05 ± 2.4e-05,0.000165 ± 5.6e-05,–
AUAAAAGCGCCAGAAGUACAGAAAUGUAGUUGACCAGGAGGAGGUUUAUCGAAUAAUCGGCGGAUGCCUCCAAA [C16G G35C U55A U56A],< 1e-05,< 1e-05,–
